Reference: the nanobody polyreactivity screen of Harvey et al. (2022)

Experiment: yeast display, Sf9 membrane polyspecificity reagent, FACS + sequencing; frameworks hold sequencing errors
In short: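 Genes from sorted yeast were amplified by colony PCR, read by MiSeq 2 × 250 sequencing and filtered on CDR length. These cells carried a synthetic nanobody library in Saccharomyces cerevisiae BJ5465 and were sorted by FACS into low and high (top ~1%) gates on anti-HA and streptavidin fluorescence. Polyreactivity is labelled according to the gate of origin.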

Row | Sequence | polyreactivity (PSR sort gate)
1 | QVQLQESAGARQPAPELRGERIYFWLLLMCWYRQAPGEERELVAGINDGASTNYADSVKGRFTISRDNARNTVYLKMNSLKPGDTAVYYCAVWQPVLIWFYYWGQGTHVTVSS | high polyreactivity
2 | QVQLVESGGGLVQAGGSLRLSCAASGFTFYAYAMGWYRQAPGKERELVAVISWSGGSTYYADSVKGRFTISRDNAKNTVYLQMNSLKPEDTAVYYCAADSLESYPDYEYDYWGQGTQVTVSS | low polyreactivity
3 | QVQLVESGGGLVQAGGSLRLSCAASGFTFIRNAMGWYRQAPGKERELVAAISWRGVRTYADSVKGRFTISRDNAKNTVYLQMHSQKPEDTAVYYCAARDAHYYPTMGYWGQGTQVTVSS | high polyreactivity
4 | QLQLVESGGGLVQAGGSLRLSCAASGSTLDRYVMGWYRPAPGKERELVAAISRNGGSTYYADSVKGRFTISRDIAKNTVYLQMNSLKPEDTAVYYCAAYIYQSPTRGGGYWGQGTQVTVSS | high polyreactivity
5 | QDQLVESGGGLVQAGGSLRLSCAASGFIFRFNARGWYRQAPGKEREVVAVIRWSSGSTYYADSVKGRFTISRDNAKNTVYLQMNSLKPEDTAVYYCAAVDDDYSIVWYYYWGQGTQVTVSS | low polyreactivity
6 | QVQLVESGGGLVQAGGSLRLSCAASGRIFRPNAMGWYRPAPGKERELVAAISYSGATTYYADSVKGRFTISRDNAKNTVYLQMNSLKPEVTAVYYCAAGGTSGQEFGYWGQGTQVTVSS | low polyreactivity
7 | QVQLVESGGGLVQAGGSLRLSCAASGFIFVRYAMGWYRQAPGKEREFVAAISGGAGSTYYADSVKGRFTISRDNAKNTVYLQMNSLKPEDTAVYYCNRVRSLRYGYWGQGTQVTVSS | high polyreactivity
8 | QVQLVESGGGLVQAGGSLRLSCAASGFTFYKYVMGWYRPAPGKERELVAAITTSGGSTYYADSVKGRFTISRDNAKNTVYLQMNCLKPEDTAVYYCNARSLHTSEGDYWGQGTQVTVSS | low polyreactivity
9 | QVQLVESGGGLVQAGGSLRLSCAASGSNFTYNRMGWYRQAPGKEREFVDAITWTGGSTYAYSVKGRFTISRDNAKNTVYLQINSLKPEDTAVYYCAAVRRISWYTPVITRRYYYWGQGTQVTVSS | high polyreactivity
10 | QDQLVESGGGLVQAGGSLRLSGAASGRIFGYYAMGWYRQPPGKETELVARISSGGGSTYYADSVKGRFTISRDNAKNTVYLQLNSLKPEDTAVDYCATVLYPYSPRYDYWGQGTLVTVSS | high polyreactivity
11 | QVQLQESGGGLVQAGGSLRLSCAASGTISDSGLKGWYRQAPGIERELVAGISSGGITNYADSVKGRFTISRDNAQNTVYLQMNSLKPVDTAVYWGQGTQLTVSS | low polyreactivity
12 | QVQLVESVGGLVQAGGSLRLSCAASGSIFAYNTMGWYRQAPGKERELVAAIRSRGGSTYYADSVKGRFTISRDNAKNTVYIQMNSLKPEDTPVSSCNAVGRARTLGSNTYGYWGQGTQVTVSS | high polyreactivity
13 | QVQLVESGGGLVQAGGSLRLSCAASGSTFVSYAMGWYRQAPGKERELVAAISSGGGSTYYADSVKGRFTISRDNAKNTVYLQMNSLKPEDTAVYYCAARGYAYRAQYGYWGQGTQVTVSS | high polyreactivity
14 | QVQLVESGGGLVQAGGSLRLSCAASGFILGWYAMGWYRQAPGKERELVADISASGTRTYYADSVKGRFTISRDNAKNTVYLQMNSLKPEDTAVYYCNVYTKFVYAYDYWGQGTQVTLSS | high polyreactivity
15 | QVQLVESGGGLVQARGSLRLICAASGFTFYRYVMGWYRQAPGKVRELVAAITGRGGSTYYADSVKGRFTISRDNAKNTVYLQMNSRKPEDTAVYYCAARYVTGTLYLAPYEYWGQGTQVTLSS | low polyreactivity
16 | QVQLVESGGGLVQAGGSLRLSCAASGSTCDRYAMGWYRQAPGKERELVAAITDTGGSTYYADSVKGRFTISRDNAKNTVYLQMNSLKPEDTAVFYCAKGYFWSSYVSSRYGSWGQGTQVTVSS | high polyreactivity
17 | QVQLVESGVGLVQAGGSLRLSCAPSGSTFWVNGMGWYRPAPGKERELVASISQSGDNTYYADSVKGRFTISRDNAKNTVYLQMNSLKPEDTAVSYCATRYQYGGFLYYRFDDWGQGTQVTVSS | high polyreactivity
18 | QVQLVESGGGLVQAGGSLRLSCAASGRIFNRYAMGWYRQAPGKERELVAAISSRGGSTFYADSVKGRFTISRDIAKNTVYLQMNSLKPVDTAVYYCATAWHRGVRGRTSGAFDYWGQGTQVTVSS | high polyreactivity
19 | QVQLVESGGGLVQAGGSLRLSCAASGRTFEGNAMGWYRQAPGKERELVAAISGSGGRTYYADSVKGRFTISRDNAKNTVYLQMNSLKPEDTAVYYAKLYSVYNPWRFNYWGQGTQVTVSS | high polyreactivity
20 | QDQLVESGGGLVQAGASLRLSCADSGFTFTTNAMGWYRHAPGKERELVAAISFSGGTTYYADSVKGRFTISRDNAKNTVYLQMNRLKPEDTAVYYCAAQPGQAWWSTDHDDYWGQGTQVTVSS | low polyreactivity
21 | QVHIVESGGGLDQAGGSLRLSCAASGFTFNAYAMGWYRQAPGKERELVAAISGRGSSTYYADSVKGRFTISRDNAKNTVYLQMNSLKPEDTEVYYCATKFYYQYPYRGDYWGQGTEVTVSS | high polyreactivity
22 | QVQLVESGGGLVQAGGSLRLSCAASGITFKYYAMGWYRQAPGKEREFVASISARGGGTYYADSVKGRFTISRDNAKNTVYLQMNSLKPEDTAVYYCAVDYRYGYFVYVHYEYWGQGTQVTVSS | high polyreactivity

Row | Sequence | polyreactivity (PSR sort gate)
23 | QVQLVESGGGLVQAGGSLRLSCAASGNIFANYAMGWYRQAPGKERELVAAIRWSASRTYYADSVKGRFTISRDNAKNTVYLQMNSLIPEDTAVYYCAATIYTFWDYYYDYWGQGTQVTVSS | high polyreactivity
24 | QVQLVESGGGLVQAGGSLRLSCAASGITIYKYAMGWYRQAPGKERELVAAITRGGSTNYADSVKGRFTISRDNAKNTVYLQMNSLKPEDTAVYYCNKVYHWQSPGFGYGYWGQGSQVTVSS | high polyreactivity
25 | QVQLVESGGGLVQAGGSLRLSCAASGRIFQRNVMGWYRQAPGKERELVASITGGGTTNYAHSVKGRFTISRDNAKNTVYLPRNSLKPEDTAVYYCNRRQNVGRVSQYEYWGQGTQVTVSS | low polyreactivity
26 | QVQLVESGGGLGQAGGSLRLSCAASGITFYPNGMGWYRPAPGKEREFVAAITSSGGSTYYADSVKGRFTISRDNAKNTVYLQMNSLKPEDTAVYYCAAQYYPISYYGYGYWGQGTQVTVSS | low polyreactivity
27 | QVQLVESGGGLVQAGRSLRLSCAASGSTFVPYAMGWYRQAPGKERELVAAITTSGGNTYYADSVKGRFTISRDNAKNTVYLQMNSLKPEDTAVYYCAADTYRRFDYWGQGTQVTVSS | low polyreactivity
28 | QVQLVESVGGLVQAGGSLPLTCAASGYTIGPNVMGWYRQAPGKERELVASITSGTSTYYADSVKGRFTISRDNAKNTVYLQMNSLKPEDTAVYYCAAKYSFGRTRWYGYWGQGTQVTVSS | high polyreactivity
29 | QVQLVESGGGLVQAGGSLRLSCAASGSIFRLYVMGWYRQAPGKERELVATITRSGGNTYYADSVKGRFTISRDNAKNTVYLQMNSLKPEDTAVYYCAAQSAKSGFYPYNRYDYWGQGTQVTVSS | low polyreactivity
30 | QVQLVESGGGVVQAGGSLRLSCAASGRTFPGYAMGWYRQAAGKERELVAAITRGSTNYADSVKGRFTISRDNAKNTVYKQMNSLKPEATAVYYCAADFQYYFFWEEDYWGHGTQVTVSS | low polyreactivity
31 | QVQLVESGGGLVQAGGSLRLSCAASGFTFEYYAMGWYRHAPGKERELVAAITSGGTTYYADSVKGRFTISRDNAKNTDYLQMNSLKPEDTAVYYCAAANRFGPYGYWGQGTQVTVSS | high polyreactivity
32 | QVQLVESGGGLVQAGGSLRLSCAASGSTFSRYAMGWYRQAPGKERELVAAISRRAGSTYYADSVKGRFTISRDNAKNTVYLQMNSLKPEDTAVYYCAARTWTENRDGDYWGQGTQVTVSS | high polyreactivity
33 | QVQLVESGGGLVQAGGSLRLSCAASGFIFDVNAMGWYRQAPGKERELVATISKRGGTTYYADSVKGRFTISRDNAKNTVYLQMNSLKPEDTAVYYCAARHQTLRSYRYDYWGQGTQVTVSS | low polyreactivity
34 | QVQLEESGGGLVQAGGSLRLSCAASGSIFVRNAMGWYRQAPGKERELVAAISRSGSSTYYADSVKGRFTISRDNAKNTVYLQMNSLKPEDTAVYYCAKRRPALRWIYYYWGQGTQVTVSS | high polyreactivity
35 | QVQLVESGGGLVQAGGSLRLSCAASGFIFRQDAMGWYRQAPGKERELVAAISWRGGSTYYADSVKGRFTISRDNAKNTEYLQMNSLKPEDTAVYYCATRQTKYSNYRGDYWGQGTQVTVST | high polyreactivity
36 | QVQLEESGRGLVQAGGSLRLSCAASGSTSGIYAMGWYRQAPGKERELVAAITWSGGSTNYADSVKGRFTISRDNAKNTVYLQMNSLKPVDTAVYYCAAEFYSYKYPDFDYWGQGTQVTVSS | low polyreactivity
37 | QVQLVESGGGLVQAGGSLRLSCAASGITFGPNAMGWYRQAPGKERELVAAISWRGGSTYYADSVKGRFTISRDNAKNTVYLQMNSLKPEDTAVYYCAKVQIPASYIRYDYWGQGTQVTVSS | low polyreactivity
38 | QVQLVESGGGLVQAGGSLRLSCAASGNTFWGNAMGWYRQAPGKERELVATISASAGSTYYADSVKGRFTISRDNAKNTVYLQMNSLKPDDTAVYYCAKTALRYLKHGRTKGDYWGQGTQVTLSS | low polyreactivity
39 | QVQLEESAGGLVQAGGSLRLSCAASGRIFNYYAMGWYRQAPGKERELVATISSTGSSTYYADSVKGRFTISRDNAKNTVYLQMNSLKPEDTAVYYCAARYVRQYYRAEDYWGQGTQVTVSS | high polyreactivity
40 | QVQLVESGGGLVQAGGSRRLSCAASGLICLLYDMGWYREAPGKERELVAAISTGGSTDYADSVKGRFTISRDNAKNTVYLPLNSLKPEDTAVYYCAADYYLYYLDGEDYWVQGTQVTVSS | high polyreactivity
41 | QVQLVESGGGLVQAGRSLRLSCAASGSTFPVNTMGWYRQAPGKERELVAAITKNGANTYYADSVKGRFTISRDNAKNTVYLQMNSLKPEYTAVYYCAALYVYGKSYSRWLVELDYWGQGTQVTVSS | low polyreactivity
42 | QVQLVESGGGLVQAGGSLRLSCAASGRTFWSYAMGWYRQAPGKERELVAAITSSGGTTNYADSVKGRFTISRDNAKNTVYLQMNSLKPEDTAVYYCAAYSWYFGSRYDYWGQGTQVTVSS | low polyreactivity
43 | QVQLVESVGGLVQAGGSLRLSCAASGRIFAPNAMGRYRQAPGKERELVAAITSRGSRTYYADSVKGRFTISRDIAKNTVYLQMKSLKPEDTAVYYCATPYRAPWGTARNYGLYYYWGQGTQVTVSS | high polyreactivity
